Measured values as given in US20070003556A1 (published 2007).

B1: LL2 diabody (other)
chain: QVQLQESGAELSKPGASVKMSCKASGYTFTSYWLHWIKQRPGQGLEWIGYINPRNDYTEYNQNFKDKATLTADKSSSTAYMQLSSLTSEDSAVYYCARRDITTFYWGQGTTLTVSSGGGGSDIQLTQSPSSLAVSAGENVTMSCKSSQSVLYSANHKNYLAWYQQKPGQSPKLLIYWASTRESGVPDRFTGSGSGTDFTLTISRVQVEDLAIYYCHQYLSSWTFGGGTKLEIKDYKDDDDK
notes: Diabody: a non-covalent dimer of two identical VH-(5-mer linker)-VL-Flag fragments; Expressed in DG44 cells and purified on anti-Flag M2 agarose; also called CD22 diabody; LL2 DB
B2: RFB4 diabody (other)
chain: EVQLVESGGGLVKPGGSLKLSCAASGFAFSIYDMSWVRQTPEKRLEWVAYISSGGGTTYYPDTVKGRFTISRDNAKNTLYLQMSSLKSEDTAMYYCARHSGYGSSYGVLFAYWGQGTLVTVSAGGGGSDIQMTQTTSSLSASLGDRVTISCRASQDISNYLNWYQQKPDGTVKLLIYYTSILHSGVPSKFSGSGSGTDYSLTISNLEQEDFATYFCQQGNTLPWTFGGGTKLEIKDYKDDDDK
notes: Diabody: a non-covalent dimer of two identical VH-(5-mer linker)-VL-Flag fragments; Transiently expressed in COS7 cells and purified on anti-Flag M2 agarose; also called CD22 diabody; RFB4 DB

Legend:
CD22 [1] = target: T1, CD22 (UniProt P20273 20-847, limits assumed); assay: flow cytometry on Raji cells, diabody at 20 ug/mL, detected with anti-Flag M2 antibody and FITC-anti-mouse IgG
T1 construct: whole, on cells; The assays used B-lymphoma cell lines Raji and Daudi, 'which are known to strongly express CD22'; also called CD22 on Raji cells; CD22 on Daudi cells
T1 sequence (looked up): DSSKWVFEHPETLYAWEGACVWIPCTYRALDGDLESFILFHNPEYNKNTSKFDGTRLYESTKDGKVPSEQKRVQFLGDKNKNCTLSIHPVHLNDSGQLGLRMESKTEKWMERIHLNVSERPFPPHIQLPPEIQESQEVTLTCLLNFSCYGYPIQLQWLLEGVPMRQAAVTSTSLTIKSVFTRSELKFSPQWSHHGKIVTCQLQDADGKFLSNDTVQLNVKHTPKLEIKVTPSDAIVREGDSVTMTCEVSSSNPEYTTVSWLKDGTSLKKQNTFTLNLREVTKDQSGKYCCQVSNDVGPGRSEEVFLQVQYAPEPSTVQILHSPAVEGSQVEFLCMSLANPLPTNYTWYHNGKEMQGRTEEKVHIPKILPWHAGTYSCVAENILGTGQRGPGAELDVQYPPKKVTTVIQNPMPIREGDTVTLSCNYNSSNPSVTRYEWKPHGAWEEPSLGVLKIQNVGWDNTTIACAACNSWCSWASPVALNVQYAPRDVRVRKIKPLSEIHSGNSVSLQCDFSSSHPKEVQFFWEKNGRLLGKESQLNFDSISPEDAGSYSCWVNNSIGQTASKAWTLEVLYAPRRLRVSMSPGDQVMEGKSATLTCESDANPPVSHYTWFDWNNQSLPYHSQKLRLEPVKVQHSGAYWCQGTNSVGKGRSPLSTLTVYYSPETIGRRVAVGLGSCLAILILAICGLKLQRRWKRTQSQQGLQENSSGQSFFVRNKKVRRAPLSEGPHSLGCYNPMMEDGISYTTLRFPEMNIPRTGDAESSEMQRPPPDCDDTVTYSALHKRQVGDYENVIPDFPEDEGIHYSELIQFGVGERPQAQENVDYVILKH
Description: (§1) Purified LL2 diabody and RFB4 diabody were added to cells of the B-lymphoma cell line, Raji, in PBS containing 2% FCS and 0.02% NaN₃ such that the final concentrations were 20 μg/mL and 8 μg/mL, respectively. After reacting on ice for one hour, anti-Flag M2 antibody was added to the mixture, and then reacted on ice for another one hour. The cells were washed and reacted with FITC-anti-mouse IgG on ice for 30 minutes. Diabody binding to the cell surface was measured by flow cytometry (EPICS ELITE, COULTER).

CD22 [2] = target: T1, CD22; assay: flow cytometry on Raji cells, diabody at 8 ug/mL, detected with anti-Flag M2 antibody and FITC-anti-mouse IgG
Description: as §1

Binder	binding result (CD22 [1])	binding result (CD22 [2])
B1	binds	
B2		binds
